# Source: PMC2722981
# B1: R7a1 (structured_RNA)
# RNA: GGAGUGACCUUCUCAACUUUAUAUUCCCUUUACCCCUUCCCCCAAGGCACU
# Molecular target: PCBP1 KH1/2 (mouse, UniProt P60335 13-170)
# Experiment: filter binding
# Chain of PCBP1 KH1/2 (P60335 13-170): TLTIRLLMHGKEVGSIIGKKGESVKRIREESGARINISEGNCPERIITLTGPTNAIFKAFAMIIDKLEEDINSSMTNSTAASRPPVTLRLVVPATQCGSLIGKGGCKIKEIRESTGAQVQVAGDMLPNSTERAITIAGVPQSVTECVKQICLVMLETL
binder,measurement,value
B1,Kd,42.3 ± 12 nM
